Reference: PMC12589613

How the values were obtained:
Test in all cases: single-molecule TIRF
[1] = system: MDA5ΔN (human); conditions: biotin on annealed RNA linkers 1 and 2; smTIRF imaging buffer, salt, pH and temperature not given in the material; proteins 3-100 nM, with or without ATP or ADPCP
[2] = system: MDA5(Q57E) (human); conditions: biotin on annealed RNA linkers 1 and 2; smTIRF imaging buffer, salt, pH and temperature not given in the material; proteins 3-100 nM, with or without ATP or ADPCP
[3] = system: MDA5 (human); conditions: biotin on annealed RNA linkers 1 and 2, smTIRF imaging buffer, salt, pH and temperature not given in the material, proteins 3-100 nM, with or without ATP or ADPCP

11.6-kb dsRNA
binding signal (frequency of static binding) [1]: 0.105 | binding signal (frequency of translocation) [1]: 1.42 | binding signal (frequency of static binding) [2]: 0.086 | binding signal (frequency of translocation) [2]: 0.527 | binding signal (frequency of static binding) ([3]; ADPCP, translocation 0): 0.337 | binding signal (frequency of static binding) [3]: 0.022 | binding signal (frequency of translocation) [3]: 0.114 | binding signal (frequency of static binding) ([3]; no ATP, translocation 0): 0.136
